Reference: the DeepSol protein solubility set

Test: soluble on expression in E. coli; label from the status in PepcDB or PDB records
With “MSLTPATQPLINAEPAVAAQTEQNPQVGQVMPGVQGADAPVVAQNGPSRDVKLTFAQIAPPPGSMVLRGINPNGSIEFGMRSDEVVTKAMLNLEYTPSPSLLPVQSQLKVYLNDELMGVLPVTKEQLGKKTLAQMPINPLFITDFNRVRLEFVGHYQDVCENPASTTLWLDVGRSSGLDLTYQTLNVKNDLSHFPVPFFDPRDNRTNTLPMVFAGAPDVGLQQASAIVASWFGSRSGWRGQNFPVLYNQLPDRNAIVFATNDKRPDFLRDHPAVKAPVIEMINHPQNPYVKLLVVFGRDDKDLLQAAKGIAQGNILFRGESVVVNEVKPLLPRKPYDAPNWVRTDRPVTFGELKTYEEQLQSSGLEPAAINVSLNLPPDLYLMRSTGIDMDINYRYTMPPVKDSSRMDISLNNQFLQSFNLSSKQEANRLLLRIPVLQGLLDGKTDVSIPALKLGATNQLRFDFEYMNPMPGGSVDNCITFQPVQNHVVIGDDSTIDFSKYYHFIPMPDLRAFANAGFPFSRMADLSQTITVMPKTPNEAQMETLLNTVGFIGAQTGFPAINLTVTDDGSTIQGKDADIMIIGGIPDKLKDDKQIDLLVQATESWVKTPMRQTPFPGIVPDESDRAAETQSTLTSSGAMAAVIGFQSPYNDQRSVIALLADSPRGYEMLNDAVNDSGKRATMFGSVAVIRESGINSLRVGDVYYVGHLPWFERLWYALANHPILEGHHHHHH” the “soluble on expression in E. coli” value was “soluble”.
In the case of “MSLTPEKLPLHVLLAEDSVVNQKVALSMLGKLGCFPDVAANGREAIDAMRQKRYDLVFMDCQMPEIDGYEVTRRIRKDHSLLCSPDIPVVAMTANAMKGDREKCIDAGMDDFMAKPLKKSDFQAIFERYFPGLFVRESSKEAGAGALTTDDVFLIDDVLFRLQNDREIILIIIGQFLLEAALQITELQAAAAEHDTERVRILSHTIKGAAATVGGQELSRCAAIIEQGAKSGDLTGIDEHLRDLNASYLRFKERVEASGWCEEGGEGHHHHHH”, the “soluble on expression in E. coli” value is reported as “soluble”.
With “MSLTPRFIDLHTHTTASDGSDSPADLVRKATEAGLAAVAVTDHDTVAGLDEAVAMGHETGIEVVRGCELGVRSEYGEIHILGLWLPEKPETLLDAMKELRRHRNERNERIVDNLRTLGMDITYEEVRALSGGVSVGRPHIALALLRHGYIRTPQEAFDRFIGPGAPAYAPKKVFSPAEGVRLLASCGATVAIAHPMLLRCPEEWLDDTVADLKVAGLDAIEAYHSEHSHKDERRCVDIADRHGLVLTGGSDYHGKAKPAISLGRGRGGLRVTTHVLDNLKRHRRERGLEGHHHHHH” the “soluble on expression in E. coli” value was “soluble”.
In the case of “MSLTQNIRPLPQFKYHPKPLETGAFEQDKTVECDCCEQQTSVYYSGPFYCVDEVEHLCPWCIADGSAAEKFAGSFQDDASIEGVEFEYDEEDEFAGIKNTYPDEMLKELVERTPGYHGWQQEFWLAHCGDFCVFIGYVGWNDIKDRLDEFANLEEDCENFGIRNSDLAKCLQKGGHCQGYLFRCLHCGKLRLWGDFSEGGSHHHHHH”, the “soluble on expression in E. coli” value is reported as “soluble”.
For “MSLTRAAVNPKPFVVPELKQWTGKDGNFTPGKDTRIVCTSQNPELLRIARMFADDYQQMFGQTLSVAQGKATSGDFVLSLSADKKLGEEGYAIKITDRVAISAPTPTGLYWSTRTLLQLAEQNQERSLPQGTIRDYPDYPLRGFMIDCGRKFIPMAYLQDLVKIMAYYKMNTLQVHLNDNGFKQYFEHNWDKTYAAFRLESETYPGLTARDGSYSKKEFIDFQKQAASNFVEIIPEIDVPAHSLALTHYKPEIGSKEYGMDHLDLFKPETYEFVDALFKEYLEGDNPVFVGKRVHIGTDEYSNAKKDVVEKFRAFTDHYIRFVEGFGKQAVVWGALSHAKGDTPVKSENVVMNAWYNGYADPATMIKDGYQLISIPDGLVYIVPKAGYYYDYLNEPYLYKEWTPAHIGKAVFDEKHPSILGGMFAIWNDHVGNGISVKDIHHRIFSPLQTLSVKMWTGAQTGIPYETFNEKRALLSEAPGVNQLARIGKKPELVYERSTVAPGSTSDYPEIGYNYTVSFDITGAKESEGTELFRSPNAVFYLSDPIRGEGHHHHHH”, the “soluble on expression in E. coli” value was “soluble”.
For “MSLTSKPYIMGVDIGTSSTKAVLFNQRGEVIFRQATHYELITDETGKAEESPTEIFDAVLTSIQAVMKNINTEELAGISFSSAMHSLIMVGSNGELLTECITWADGRSSETLEKVKRDNYLFQLYEATGTPIHPMSPFAKICWLKEEKPTLFKRTEKFVDIKSYILYRLFGVWVMDESLASGTGLYNIMEHDWEFEAMEIVKLTPDFLPKVVPETYQLAGVKKEYAELMGIPENLPFIIGGSDGALANIGIQATGQNDVTITVGTSGAVRKLTDQFQIDSRGRTFCYGAGDGYFIAGGAVNNGGKVVEWGLQQFGSEAEISRRDFASFIAKIEEVPPGAAGLLFQPYLLGERAPFWTNDIRGGFVGLTINHTKAHFIRAILEGVAFNLAEVYEAVSAPDDIIYVTGGISAHDAWCKLLADILNREIRVPHTIEGSSLGAAIIGMRSLGILKDLNLKHTLPIKAVYHPSENVLKYAELRLIFKQVTTQLMSSYSQLNSWQKKFDINSEGHHHHHH”, the “soluble on expression in E. coli” value was “soluble”.
In the case of “MSLTSPLAYSYTHTGTEATTGYFSCEPPQDMTMEQALAWLAVHPMDDFMHRHLLRRLGEMSPEELAKLGPTLQASPVLEALFCELCALAPEGSPLRATLTEILEGLSTTSEASPAAIAERLGAYTPLPYIGWAALPDRELHQAWCRLFSDNIQNHRMLPHPEDNDLAPLYADEEPATRPEPPITAVHARLAAAPGTPWSRPPAHETAQKALEVLVENDIIAGVEMRHEASLSPIALLRRWRLDLGVRNGGLAYTLRGEATTYGRGLSLADARASYAMEMVERASSYANVGPEGILGLTRPQPLRKARHSELVAEGLAVLDPNAIPLEVPYRDQPIHWLTGHASEANGNAPTLVPAQMVYLFCNLDEVALFTSSSSTGLASGNTLAEAKVAALTEILERDAEATTPYDRARCFRPATDDPLLRSLLEDYAARGIQIQMQDMTTEWGIPCYTCFVMSSRGKLARGTGAGLDGRRAAISALTETPYPYPRGGASGPGLRGLPERKLEDLPSFTLESPERNLALLEETLASTGHHPVYVELTRADLGLPVVKALIPGLELTADFDDCTRISRRLYRNYLRMGYDEGHHHHHH”, the “soluble on expression in E. coli” value is reported as “soluble”.
For “MSLTSQITSNSPVKWKRRTRHDTCGKITLFALQKTMYFDNLSTKKHNLDNLELERSCFEISETMDSSLSIITYSMSVHSLQKNGEPMKQEKQQFIKTDWTIDMINRRQFEKYAIDILTATKDIHRGGWVERIDNKAWQYVRVYENGDIEVLITLQIIRFHKYFDTPVWLQFNPNHLLPADYVQLDHVMKYVDHSHLTRADLANDIYNINLQRYDFGLFGVTRDIYRSLSGDLETRYWGRRKSERQIRLYDKMREMKKHGKADDIPDGITDWWRLEFQFRGGKVESWQEEVEGHHHHHH”, the “soluble on expression in E. coli” value was “not soluble”.
With “MSLTSTAFAPRSLAPARITAVRVAPLLGESPQGGWSHEIKADDSVHALIALHTDAGISGYGSVFTNGALVQAAADVLTPLLLGENALEPDRIAEKLHQNTFWMGRGGSITHTISGIDIAMWDILGQATGLSVGRLLGGRHRDRVQPYCSLLMDMPERMEAVIAPHRAAGFRAFKIGWGPFGRRGDAGLDRAIIDAARTAVGTDAQLLVDAGASDAYWPNGLKWAMNTAAMLADYDVGWFEEALPPDAIEDFIALRRMSPVPIAGGEVLTRRQSFAPWLVRGAFDIVQPDVTKVGGISEQRRIAWMARDFGIRYVGHGWNTAFGLAADLQLAAAMPDCTLVEYIGGSAYVDRLTTRPFALDAEGMLAIPDLPGLGVSPDPALLARYTPDPEKFFSAEGHHHHHH” the “soluble on expression in E. coli” value was “soluble”.
For “MSLTTKYIFVTGGVVSSLGKGITAASLGRLLKNRGMKVTIQKFDPYINVDPGTMSPYQHGEVFVTDDGAETDLDLGHYERFIDINLNKNSNVTTGKIYSSVLKKERRGDYLGGTVQVIPHVTNEIKERVFRAGRETNADVVITEIGGTVGDIESLPFLEAIRQIKSDIGVDNVMYIHCTLIPYLAAAGEMKSKPTQHSVKELRSLGIQPNVIVVRTEKPVPEEMKEKIALFCDIRKDSVIEARDADTLYEVPLDLQAQNLDEIVCDHLNLSCQEADMTEWKSLVEKVKNLSGLVKIALVGKYVALPDAYLSVAEALRHAGYAFDADINIKWVDSEDVTAENVAEQLQGVDGILVPGGFGDRGIEGKIEAIRYAREQKIPFLGICLGMQLASIEFARNVLGLEGAHSAEINPDTPHPIIDLLPEQKDVEDMGGTLRLGLYPCKLKNGTLAQSAYNDQVIYERHRHRYEFNNQYREQMEAKGFMFSGTSPDGRLVEIVELGDHPFFIASQFHPEFVSRPTRPQPLFREFIQASLRKEGHHHHHH”, the “soluble on expression in E. coli” value was “soluble”.
